T1: LIN7B, Q9HAP6
T1 sequence (Q9HAP6 88-185, limits assumed, looked up): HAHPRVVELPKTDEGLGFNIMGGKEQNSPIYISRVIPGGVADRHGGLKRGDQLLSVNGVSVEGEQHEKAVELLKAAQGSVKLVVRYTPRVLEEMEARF

T2: HTRA3, P83110
T2 sequence (P83110 354-453, limits assumed, looked up): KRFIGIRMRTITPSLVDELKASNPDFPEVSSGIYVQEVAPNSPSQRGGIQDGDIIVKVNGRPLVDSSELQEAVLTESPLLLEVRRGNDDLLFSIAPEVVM

T3: GRIP1_7, Q9Y3R0
T3 sequence (Q9Y3R0 999-1096, limits assumed, looked up): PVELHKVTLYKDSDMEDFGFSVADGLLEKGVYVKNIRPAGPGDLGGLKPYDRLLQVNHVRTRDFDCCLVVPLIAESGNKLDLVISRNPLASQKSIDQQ

T4: RADIL, Q96JH8
T4 sequence (Q96JH8 971-1071, limits assumed, looked up): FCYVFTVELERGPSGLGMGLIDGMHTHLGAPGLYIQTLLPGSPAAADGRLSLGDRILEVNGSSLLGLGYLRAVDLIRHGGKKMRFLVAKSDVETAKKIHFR

T5: TJP3_3, O95049
T5 sequence (O95049 375-456, limits assumed, looked up): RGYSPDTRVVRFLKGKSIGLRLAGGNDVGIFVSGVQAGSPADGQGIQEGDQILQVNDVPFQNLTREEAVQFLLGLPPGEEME

T6: SIPA1L2, Q9P2F8
T6 sequence (Q9P2F8 945-1036, limits assumed, looked up): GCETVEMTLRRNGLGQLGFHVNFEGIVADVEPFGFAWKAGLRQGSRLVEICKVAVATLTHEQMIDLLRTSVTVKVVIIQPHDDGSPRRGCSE

T7: TX1BP3, O14907
T7 sequence (O14907 10-122, limits assumed, looked up): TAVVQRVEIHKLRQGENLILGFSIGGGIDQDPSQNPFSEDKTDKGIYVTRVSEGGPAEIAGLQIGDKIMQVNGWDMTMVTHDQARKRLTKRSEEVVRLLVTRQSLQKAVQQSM

T8: SNTB1, Q13884
T8 sequence (Q13884 107-205, limits assumed, looked up): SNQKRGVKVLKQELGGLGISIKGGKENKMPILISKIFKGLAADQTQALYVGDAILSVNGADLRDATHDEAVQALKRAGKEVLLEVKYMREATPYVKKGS

T9: HTRA4, P83105
T9 sequence (P83105 378-476, limits assumed, looked up): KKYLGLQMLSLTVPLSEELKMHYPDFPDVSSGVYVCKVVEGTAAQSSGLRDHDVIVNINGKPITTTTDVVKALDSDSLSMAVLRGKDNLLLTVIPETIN

T10: NHERF3_4, Q5T2W1
T10 sequence (Q5T2W1 373-468, limits assumed, looked up): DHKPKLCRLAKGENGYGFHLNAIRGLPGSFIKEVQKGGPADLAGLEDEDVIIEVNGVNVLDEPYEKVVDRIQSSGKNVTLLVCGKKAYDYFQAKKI

T11: ARHGEF11, O15085
T11 sequence (O15085 42-136, limits assumed, looked up): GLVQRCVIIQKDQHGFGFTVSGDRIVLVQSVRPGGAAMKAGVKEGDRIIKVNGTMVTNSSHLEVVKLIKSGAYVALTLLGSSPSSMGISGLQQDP

T12: RAPGEF6, Q8TEU7
T12 sequence (Q8TEU7 525-625, limits assumed, looked up): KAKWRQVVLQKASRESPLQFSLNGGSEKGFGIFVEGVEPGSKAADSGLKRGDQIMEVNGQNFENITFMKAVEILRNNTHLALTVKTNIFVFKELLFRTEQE

T13: SNTA1, Q13424
T13 sequence (Q13424 82-180, limits assumed, looked up): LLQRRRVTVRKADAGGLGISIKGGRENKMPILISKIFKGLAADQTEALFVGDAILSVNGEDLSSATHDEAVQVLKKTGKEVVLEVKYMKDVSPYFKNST

B1: ARHGAP17, Q68EM7 (peptide)
chain: IDNDTESTAL
B2: ABCC4, O15439 (peptide)
chain: STLTIFETAL

Target: T1, LIN7B, Q9HAP6
Test: holdup assay
Parameters: key: below the threshold = too weak to quantify, mostly under pKd 3.1 to 4
Settings: plain residues with an end cap or a label only (N-terminal biotin on a linker: ttds)

**Q.** How did the pKd turn out when B1 was run?
**A.** below the threshold

**Q.** How did the pKd turn out when B2 was run?
**A.** 4.44

Target: DLG2_2, Q15700
Sequence (Q15700 189-283): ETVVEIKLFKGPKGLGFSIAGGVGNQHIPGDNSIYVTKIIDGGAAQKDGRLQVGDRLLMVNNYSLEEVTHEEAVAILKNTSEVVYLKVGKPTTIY
Test: holdup assay
Parameters: key: below the threshold = too weak to quantify, mostly under pKd 3.1 to 4
Settings: plain residues with an end cap or a label only (N-terminal biotin on a linker: ttds)

**Q.** With B1 as the binder, how does the pKd read?
**A.** below the threshold

**Q.** For B2, which pKd is on record?
**A.** 4.15

Target: AHNAK1, Q09666
Sequence (Q09666 4-100): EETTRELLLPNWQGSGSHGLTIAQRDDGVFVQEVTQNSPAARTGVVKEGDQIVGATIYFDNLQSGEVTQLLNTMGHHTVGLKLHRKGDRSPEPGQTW
Test: holdup assay
Parameters: key: below the threshold = too weak to quantify, mostly under pKd 3.1 to 4
Settings: plain residues with an end cap or a label only (N-terminal biotin on a linker: ttds)

**Q.** Which pKd does the source give for B1 here?
**A.** below the threshold

**Q.** With B2 as the binder, how does the pKd read?
**A.** below the threshold

Target: T2, HTRA3, P83110
Test: holdup assay
Parameters: key: below the threshold = too weak to quantify, mostly under pKd 3.1 to 4
Settings: plain residues with an end cap or a label only (N-terminal biotin on a linker: ttds)

**Q.** How did the pKd turn out when B1 was run?
**A.** below the threshold

**Q.** Which pKd does the source give for B2 here?
**A.** below the threshold

Target: T3, GRIP1_7, Q9Y3R0
Test: holdup assay
Parameters: key: below the threshold = too weak to quantify, mostly under pKd 3.1 to 4
Settings: plain residues with an end cap or a label only (N-terminal biotin on a linker: ttds)

**Q.** B1 was tested. Which pKd did it give?
**A.** 3.51

**Q.** B2 was tested. Which pKd did it give?
**A.** below the threshold

Target: T4, RADIL, Q96JH8
Test: holdup assay
Parameters: key: below the threshold = too weak to quantify, mostly under pKd 3.1 to 4
Settings: plain residues with an end cap or a label only (N-terminal biotin on a linker: ttds)

**Q.** B1 was tested. Which pKd did it give?
**A.** below the threshold

**Q.** With B2 as the binder, how does the pKd read?
**A.** 3.56

Target: T5, TJP3_3, O95049
Test: holdup assay
Parameters: key: below the threshold = too weak to quantify, mostly under pKd 3.1 to 4
Settings: plain residues with an end cap or a label only (N-terminal biotin on a linker: ttds)

**Q.** For B1, which pKd is on record?
**A.** below the threshold

**Q.** B2 was tested. Which pKd did it give?
**A.** below the threshold

Target: LDB3, O75112
Sequence (O75112 1-94): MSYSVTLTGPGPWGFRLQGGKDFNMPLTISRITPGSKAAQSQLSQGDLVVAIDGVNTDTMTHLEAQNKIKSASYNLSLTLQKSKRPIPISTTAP
Test: holdup assay
Parameters: key: below the threshold = too weak to quantify, mostly under pKd 3.1 to 4
Settings: plain residues with an end cap or a label only (N-terminal biotin on a linker: ttds)

**Q.** B1 was tested. Which pKd did it give?
**A.** below the threshold

**Q.** With B2 as the binder, how does the pKd read?
**A.** below the threshold

Target: MAGI2_4, Q86UL8
Sequence (Q86UL8 772-865): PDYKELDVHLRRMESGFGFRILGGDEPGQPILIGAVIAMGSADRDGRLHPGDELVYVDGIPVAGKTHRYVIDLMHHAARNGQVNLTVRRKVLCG
Test: holdup assay
Parameters: key: below the threshold = too weak to quantify, mostly under pKd 3.1 to 4
Settings: plain residues with an end cap or a label only (N-terminal biotin on a linker: ttds)

**Q.** Which pKd does the source give for B1 here?
**A.** below the threshold

**Q.** How did the pKd turn out when B2 was run?
**A.** 3.54

Target: NHERF4_2, Q86UT5
Sequence (Q86UT5 220-308): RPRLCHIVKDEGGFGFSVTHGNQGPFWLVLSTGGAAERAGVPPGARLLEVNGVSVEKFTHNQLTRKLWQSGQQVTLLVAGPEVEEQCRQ
Test: holdup assay
Parameters: key: below the threshold = too weak to quantify, mostly under pKd 3.1 to 4
Settings: plain residues with an end cap or a label only (N-terminal biotin on a linker: ttds)

**Q.** How did the pKd turn out when B1 was run?
**A.** below the threshold

**Q.** For B2, which pKd is on record?
**A.** below the threshold

Target: MAGI1_2, Q96QZ7
Sequence (Q96QZ7 456-580): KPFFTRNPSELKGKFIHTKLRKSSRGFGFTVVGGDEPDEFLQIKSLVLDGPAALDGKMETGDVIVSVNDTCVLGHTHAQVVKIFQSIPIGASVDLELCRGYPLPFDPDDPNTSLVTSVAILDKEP
Test: holdup assay
Parameters: key: below the threshold = too weak to quantify, mostly under pKd 3.1 to 4
Settings: plain residues with an end cap or a label only (N-terminal biotin on a linker: ttds)

**Q.** With B1 as the binder, how does the pKd read?
**A.** below the threshold

**Q.** For B2, which pKd is on record?
**A.** 3.86

Target: T6, SIPA1L2, Q9P2F8
Test: holdup assay
Parameters: key: below the threshold = too weak to quantify, mostly under pKd 3.1 to 4
Settings: plain residues with an end cap or a label only (N-terminal biotin on a linker: ttds)

**Q.** With B1 as the binder, how does the pKd read?
**A.** below the threshold

**Q.** B2 was tested. Which pKd did it give?
**A.** below the threshold

Target: T7, TX1BP3, O14907
Test: holdup assay
Parameters: key: below the threshold = too weak to quantify, mostly under pKd 3.1 to 4
Settings: plain residues with an end cap or a label only (N-terminal biotin on a linker: ttds)

**Q.** With B1 as the binder, how does the pKd read?
**A.** below the threshold

**Q.** With B2 as the binder, how does the pKd read?
**A.** 5.11

Target: T8, SNTB1, Q13884
Test: holdup assay
Parameters: key: below the threshold = too weak to quantify, mostly under pKd 3.1 to 4
Settings: plain residues with an end cap or a label only (N-terminal biotin on a linker: ttds)

**Q.** For B1, which pKd is on record?
**A.** 4.13

**Q.** With B2 as the binder, how does the pKd read?
**A.** 5.05

Target: DLG5_1, Q8TDM6
Sequence (Q8TDM6 617-713): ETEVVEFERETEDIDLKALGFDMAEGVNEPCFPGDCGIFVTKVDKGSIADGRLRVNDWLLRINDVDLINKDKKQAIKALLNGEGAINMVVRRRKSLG
Test: holdup assay
Parameters: key: below the threshold = too weak to quantify, mostly under pKd 3.1 to 4
Settings: plain residues with an end cap or a label only (N-terminal biotin on a linker: ttds)

**Q.** How did the pKd turn out when B1 was run?
**A.** below the threshold

**Q.** Which pKd does the source give for B2 here?
**A.** below the threshold

Target: Inadl_6, Q8NI35
Sequence (Q8NI35 1058-1167): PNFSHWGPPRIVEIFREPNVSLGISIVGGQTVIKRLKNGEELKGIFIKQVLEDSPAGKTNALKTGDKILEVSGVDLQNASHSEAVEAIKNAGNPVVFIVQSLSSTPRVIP
Test: holdup assay
Parameters: key: below the threshold = too weak to quantify, mostly under pKd 3.1 to 4
Settings: plain residues with an end cap or a label only (N-terminal biotin on a linker: ttds)

**Q.** For B1, which pKd is on record?
**A.** 3.91

**Q.** Which pKd does the source give for B2 here?
**A.** 4.89

Target: T9, HTRA4, P83105
Test: holdup assay
Parameters: key: below the threshold = too weak to quantify, mostly under pKd 3.1 to 4
Settings: plain residues with an end cap or a label only (N-terminal biotin on a linker: ttds)

**Q.** Which pKd does the source give for B1 here?
**A.** below the threshold

**Q.** With B2 as the binder, how does the pKd read?
**A.** below the threshold

Target: GRID2IP_2, A4D2P6
Sequence (A4D2P6 272-370): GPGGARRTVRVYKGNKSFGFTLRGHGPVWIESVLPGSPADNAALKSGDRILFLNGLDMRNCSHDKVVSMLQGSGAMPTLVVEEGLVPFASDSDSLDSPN
Test: holdup assay
Parameters: key: below the threshold = too weak to quantify, mostly under pKd 3.1 to 4
Settings: plain residues with an end cap or a label only (N-terminal biotin on a linker: ttds)

**Q.** B1 was tested. Which pKd did it give?
**A.** 4.87

**Q.** With B2 as the binder, how does the pKd read?
**A.** 4.36

Target: TJP1_3, Q07157
Sequence (Q07157 416-512): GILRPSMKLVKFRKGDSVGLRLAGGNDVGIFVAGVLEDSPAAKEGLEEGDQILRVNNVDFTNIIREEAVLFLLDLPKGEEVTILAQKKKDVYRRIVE
Test: holdup assay
Parameters: key: below the threshold = too weak to quantify, mostly under pKd 3.1 to 4
Settings: plain residues with an end cap or a label only (N-terminal biotin on a linker: ttds)

**Q.** For B1, which pKd is on record?
**A.** below the threshold

**Q.** With B2 as the binder, how does the pKd read?
**A.** below the threshold

Target: T10, NHERF3_4, Q5T2W1
Test: holdup assay
Parameters: key: below the threshold = too weak to quantify, mostly under pKd 3.1 to 4
Settings: plain residues with an end cap or a label only (N-terminal biotin on a linker: ttds)

**Q.** For B1, which pKd is on record?
**A.** 4.78

**Q.** How did the pKd turn out when B2 was run?
**A.** 4.78

Target: T11, ARHGEF11, O15085
Test: holdup assay
Parameters: key: below the threshold = too weak to quantify, mostly under pKd 3.1 to 4
Settings: plain residues with an end cap or a label only (N-terminal biotin on a linker: ttds)

**Q.** Which pKd does the source give for B1 here?
**A.** 4.79

**Q.** With B2 as the binder, how does the pKd read?
**A.** 4.93

Target: T12, RAPGEF6, Q8TEU7
Test: holdup assay
Parameters: key: below the threshold = too weak to quantify, mostly under pKd 3.1 to 4
Settings: plain residues with an end cap or a label only (N-terminal biotin on a linker: ttds)

**Q.** For B1, which pKd is on record?
**A.** below the threshold

**Q.** With B2 as the binder, how does the pKd read?
**A.** below the threshold

Target: T13, SNTA1, Q13424
Test: holdup assay
Parameters: key: below the threshold = too weak to quantify, mostly under pKd 3.1 to 4
Settings: plain residues with an end cap or a label only (N-terminal biotin on a linker: ttds)

**Q.** Which pKd does the source give for B1 here?
**A.** 3.73

**Q.** B2 was tested. Which pKd did it give?
**A.** 4.75

Target: DLG1_1, Q12959
Test: holdup assay
Parameters: key: below the threshold = too weak to quantify, mostly under pKd 3.1 to 4
Settings: plain residues with an end cap or a label only (N-terminal biotin on a linker: ttds)

**Q.** How did the pKd turn out when B1 was run?
**A.** below the threshold

**Q.** For B2, which pKd is on record?
**A.** 4.46

Target: DLG4_3, P78352
Sequence (P78352 306-403): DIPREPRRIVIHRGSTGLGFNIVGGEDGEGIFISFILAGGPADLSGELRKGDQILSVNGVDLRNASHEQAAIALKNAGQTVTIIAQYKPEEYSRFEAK
Test: holdup assay
Parameters: key: below the threshold = too weak to quantify, mostly under pKd 3.1 to 4
Settings: plain residues with an end cap or a label only (N-terminal biotin on a linker: ttds)

**Q.** For B1, which pKd is on record?
**A.** below the threshold

**Q.** B2 was tested. Which pKd did it give?
**A.** 3.85
